Residue numbers refer to the chain shown, from its start. Names may count otherwise.
T1: PUF4 RNA-binding domain (Saccharomyces cerevisiae, UniProt P25339 537-888)
T1 sequence: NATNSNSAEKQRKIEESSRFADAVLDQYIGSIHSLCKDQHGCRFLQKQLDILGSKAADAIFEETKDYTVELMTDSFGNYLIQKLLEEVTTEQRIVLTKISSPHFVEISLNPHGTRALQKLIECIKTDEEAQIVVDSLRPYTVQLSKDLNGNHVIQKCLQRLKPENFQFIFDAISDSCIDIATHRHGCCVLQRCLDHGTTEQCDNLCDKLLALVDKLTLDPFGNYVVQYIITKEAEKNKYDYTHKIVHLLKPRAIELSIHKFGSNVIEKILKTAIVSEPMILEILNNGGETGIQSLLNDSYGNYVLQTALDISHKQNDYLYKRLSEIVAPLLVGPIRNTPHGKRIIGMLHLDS

B1: Ib_S3_P3E.1_K3.1_C3.1_H3.1_[T1A]_A3.1_F3.1_[T7A]_T3.1 (ssRNA)
RNA: ACAAACAGUAUAAAACAAAC
B2: Ib_S3_P3E.1_K3.1_C3.1_H3.1_[T3G]_A3.1_[A6T]_F3.1_T3.1 (ssRNA)
RNA: ACAAACUGGAUUUAACAAAC
B3: Ib_S3_P3E.1_K3.1_C3.1_H3.1_[A4C]_A3.1_F3.1_[A8T]_T3.1 (ssRNA)
RNA: ACAAACUGUCUAUUACAAAC
B4: Ib_S3_P3E.1_K3.1_C3.1_H3.1_[G2C]_A3.1_F3.1_[A8T]_T3.1 (ssRNA)
RNA: ACAAACUCUAUAUUACAAAC
B5: Ib_S3_P3E.1_K3.1_C3.1_H3.1_[T1G]_A3.1_[A6C]_F3.1_T3.1 (ssRNA)
RNA: ACAAACGGUAUCUAACAAAC
B6: Ib_S3_P3E.1_K3.1_C3.1_H3.1_[T3C]_A3.1_F3.1_[T7A]_T3.1 (ssRNA)
RNA: ACAAACUGCAUAAAACAAAC
B7: Ib_S3_P3E.1_K3.1_C3.1_H3.1_[T3G]_A3.1_[T5G]_F3.1_T3.1 (ssRNA)
RNA: ACAAACUGGAGAUAACAAAC
B8: Ib_S3_P3E.1_K3.1_C3.1_H3.1_[A4C]_A3.1_F3.1_[T7C]_T3.1 (ssRNA)
RNA: ACAAACUGUCUACAACAAAC
B9: Ib_S3_P4E.1_K4.1_C4.1_H4.1_[G2C]_A4.1_F4.1_[A9C]_T4.1 (ssRNA)
RNA: ACAAACUCUAUAUUCACAAAC
B10: Ib_S3_P3E.1_K3.1_C3.1_H3.1_[G2A]_A3.1_[A6T]_F3.1_T3.1 (ssRNA)
RNA: ACAAACUAUAUUUAACAAAC
B11: Ib_S3_P4E.1_K4.1_C4.1_H4.1_[T1G]_A4.1_F4.1_[T8G]_T4.1 (ssRNA)
RNA: ACAAACGGUAUAUGAACAAAC
B12: Ib_S3_P3E.1_K3.1_C3.1_H3.1_[T1C]_[A4C]_A3.1_F3.1_T3.1 (ssRNA)
RNA: ACAAACCGUCUAUAACAAAC
B13: Ib_S3_P4E.1_K4.1_C4.1_H4.1_[T1G]_A4.1_F4.1_[T8A]_T4.1 (ssRNA)
RNA: ACAAACGGUAUAUAAACAAAC
B14: Ib_S3_P3E.1_K3.1_C3.1_H3.1_[T1A]_A3.1_[T5G]_F3.1_T3.1 (ssRNA)
RNA: ACAAACAGUAGAUAACAAAC
B15: Ib_S3_P3E.1_K3.1_C3.1_H3.1_[T3C]_[A4T]_A3.1_F3.1_T3.1 (ssRNA)
RNA: ACAAACUGCUUAUAACAAAC
B16: Ib_S3_P3E.1_K3.1_C3.1_H3.1_[G2T]_A3.1_F3.1_[A8T]_T3.1 (ssRNA)
RNA: ACAAACUUUAUAUUACAAAC
B17: Ib_S3_P3E.1_K3.1_C3.1_H3.1_[T1C]_A3.1_F3.1_[A8T]_T3.1 (ssRNA)
RNA: ACAAACCGUAUAUUACAAAC
B18: Ib_S3_P3E.1_K3.1_C3.1_H3.1_[T3A]_[A4G]_A3.1_F3.1_T3.1 (ssRNA)
RNA: ACAAACUGAGUAUAACAAAC
B19: Ib_S3_P3E.1_K3.1_C3.1_H3.1_[T3C]_A3.1_F3.1_[A8G]_T3.1 (ssRNA)
RNA: ACAAACUGCAUAUGACAAAC
B20: Ib_S3_P3E.1_K3.1_C3.1_H3.1_[A4C]_A3.1_F3.1_[T7A]_T3.1 (ssRNA)
RNA: ACAAACUGUCUAAAACAAAC
B21: Ib_S3_P4E.1_K4.1_C4.1_H4.1_[G2C]_A4.1_F4.1_[T8C]_T4.1 (ssRNA)
RNA: ACAAACUCUAUAUCAACAAAC
B22: Ib_S3_P3E.1_K3.1_C3.1_H3.1_[T1C]_A3.1_[T5A]_F3.1_T3.1 (ssRNA)
RNA: ACAAACCGUAAAUAACAAAC
B23: Ib_S3_P4E.1_K4.1_C4.1_H4.1_[G2T]_A4.1_F4.1_[A9C]_T4.1 (ssRNA)
RNA: ACAAACUUUAUAUUCACAAAC
B24: Ib_S3_P4E.1_K4.1_C4.1_H4.1_[T1A]_A4.1_F4.1_[T8A]_T4.1 (ssRNA)
RNA: ACAAACAGUAUAUAAACAAAC
B25: Ib_S3_P4E.1_K4.1_C4.1_H4.1_[T1C]_A4.1_F4.1_[A9C]_T4.1 (ssRNA)
RNA: ACAAACCGUAUAUUCACAAAC
B26: Ib_S3_P3E.1_K3.1_C3.1_H3.1_[T1G]_A3.1_[T5C]_F3.1_T3.1 (ssRNA)
RNA: ACAAACGGUACAUAACAAAC
B27: Ib_S3_P3E.1_K3.1_C3.1_H3.1_[A4C]_A3.1_F3.1_[T7G]_T3.1 (ssRNA)
RNA: ACAAACUGUCUAGAACAAAC
B28: Ib_S3_P3E.1_K3.1_C3.1_H3.1_[T3C]_A3.1_F3.1_[A8T]_T3.1 (ssRNA)
RNA: ACAAACUGCAUAUUACAAAC
B29: Ib_S3_P3E.1_K3.1_C3.1_H3.1_[A4C]_A3.1_[A6T]_F3.1_T3.1 (ssRNA)
RNA: ACAAACUGUCUUUAACAAAC
B30: Ib_S3_P4E.1_K4.1_C4.1_H4.1_[T1A]_A4.1_F4.1_[T8C]_T4.1 (ssRNA)
RNA: ACAAACAGUAUAUCAACAAAC
B31: Ib_S3_P3E.1_K3.1_C3.1_H3.1_[T1C]_A3.1_F3.1_[T7G]_T3.1 (ssRNA)
RNA: ACAAACCGUAUAGAACAAAC
B32: Ib_S3_P3E.1_K3.1_C3.1_H3.1_[T3C]_A3.1_[T5G]_F3.1_T3.1 (ssRNA)
RNA: ACAAACUGCAGAUAACAAAC
B33: Ib_S3_P3E.1_K3.1_C3.1_H3.1_[G2C]_A3.1_[T5C]_F3.1_T3.1 (ssRNA)
RNA: ACAAACUCUACAUAACAAAC
B34: Ib_S2_P5E.1_K5.1_C5.1_H5.1_[A4T]_A5.1_[T6A]_F5.1_T5.1 (ssRNA)
RNA: UUUGAUUAAUAUGAUAUCGUUCUUUCUUGUUUAAUUAUUCUUUCUCGAUAUCAUAUUAAUCUUU
B35: Ib_S2_P5E.1_K5.1_C5.1_H5.1_[A4C]_A5.1_[A7C]_F5.1_T5.1 (ssRNA)
RNA: B34 RNA with U31C, A33U, A34C
B36: Ic_S2_P5E.1_K5.1_C5.1_H5.1_A5.1_[T6G]_[A7C]_F5.1_T5.1 (ssRNA)
RNA: B34 RNA with U31A, A33G, A34C
B37: Ia_S2_P5E.1_K5.1_C5.1_H5.1_[G2A]_A5.1_F5.1_T5.1 (ssRNA)
RNA: B34 RNA with G29A, U31A, A33U
B38: Ib_S2_P5E.1_K5.1_C5.1_H5.1_[A4C]_A5.1_[A7T]_F5.1_T5.1 (ssRNA)
RNA: B34 RNA with U31C, A33U, A34U
B39: Ia_S2_P5E.1_K5.1_C5.1_H5.1_A5.1_[T5G]_F5.1_T5.1 (ssRNA)
RNA: B34 RNA with U31A, U32G, A33U
B40: Ic_S2_P5E.1_K5.1_C5.1_H5.1_A5.1_[T5A]_[A7G]_F5.1_T5.1 (ssRNA)
RNA: B34 RNA with U31A, U32A, A33U, A34G
B41: Ib_S2_P5E.1_K5.1_C5.1_H5.1_[A4G]_A5.1_[A7T]_F5.1_T5.1 (ssRNA)
RNA: B34 RNA with U31G, A33U, A34U
B42: Ia_S2_P5E.1_K5.1_C5.1_H5.1_[A4T]_A5.1_F5.1_T5.1 (ssRNA)
RNA: B34 RNA with A33U
B43: Ib_S2_P5E.1_K5.1_C5.1_H5.1_A5.1_[T6G]_[A7T]_F5.1_T5.1 (ssRNA)
RNA: B34 RNA with U31A, A33G, A34U
B44: Ib_S2_P5E.1_K5.1_C5.1_H5.1_A5.1_[T5C]_[T6A]_F5.1_T5.1 (ssRNA)
RNA: B34 RNA with U31A, U32C
B45: Ia_S2_P5E.1_K5.1_C5.1_H5.1_[A4G]_A5.1_F5.1_T5.1 (ssRNA)
RNA: B34 RNA with U31G, A33U
B46: Ib_S2_P5E.1_K5.1_C5.1_H5.1_A5.1_[T5G]_[A7C]_F5.1_T5.1 (ssRNA)
RNA: B34 RNA with U31A, U32G, A33U, A34C
B47: Ib_S2_P5E.1_K5.1_C5.1_H5.1_A5.1_[T5C]_[A7T]_F5.1_T5.1 (ssRNA)
RNA: B34 RNA with U31A, U32C, A33U, A34U
B48: Ib_S2_P5E.1_K5.1_C5.1_H5.1_A5.1_[T5G]_[A7G]_F5.1_T5.1 (ssRNA)
RNA: B34 RNA with U31A, U32G, A33U, A34G
B49: Ia_S2_P5E.1_K5.1_C5.1_H5.1_A5.1_[T5C]_F5.1_T5.1 (ssRNA)
RNA: B34 RNA with U31A, U32C, A33U
B50: Ib_S2_P5E.1_K5.1_C5.1_H5.1_A5.1_[T5C]_[A7C]_F5.1_T5.1 (ssRNA)
RNA: B34 RNA with U31A, U32C, A33U, A34C
B51: Ib_S3_P3E.1_K3.1_C3.1_H3.1_[G2T]_A3.1_[T5G]_F3.1_T3.1 (ssRNA)
RNA: ACAAACUUUAGAUAACAAAC
B52: Ib_S3_P4E.1_K4.1_C4.1_H4.1_[T3C]_A4.1_F4.1_[A9T]_T4.1 (ssRNA)
RNA: ACAAACUGCAUAUUUACAAAC
B53: Ib_S3_P3E.1_K3.1_C3.1_H3.1_[T3A]_A3.1_[A6C]_F3.1_T3.1 (ssRNA)
RNA: ACAAACUGAAUCUAACAAAC
B54: Ib_S3_P3E.1_K3.1_C3.1_H3.1_[G2C]_A3.1_[T5G]_F3.1_T3.1 (ssRNA)
RNA: ACAAACUCUAGAUAACAAAC
B55: Ib_S3_P4E.1_K4.1_C4.1_H4.1_[G2A]_A4.1_F4.1_[A9C]_T4.1 (ssRNA)
RNA: ACAAACUAUAUAUUCACAAAC
B56: Ib_S3_P3E.1_K3.1_C3.1_H3.1_[T1A]_A3.1_[T5C]_F3.1_T3.1 (ssRNA)
RNA: ACAAACAGUACAUAACAAAC
B57: Ib_S3_P3E.1_K3.1_C3.1_H3.1_[T1A]_A3.1_[A6T]_F3.1_T3.1 (ssRNA)
RNA: ACAAACAGUAUUUAACAAAC
B58: Ib_S3_P3E.1_K3.1_C3.1_H3.1_[G2T]_A3.1_[A6T]_F3.1_T3.1 (ssRNA)
RNA: ACAAACUUUAUUUAACAAAC
B59: Ib_S3_P3E.1_K3.1_C3.1_H3.1_[T1C]_[G2C]_A3.1_F3.1_T3.1 (ssRNA)
RNA: ACAAACCCUAUAUAACAAAC
B60: Ib_S3_P3E.1_K3.1_C3.1_H3.1_[T3C]_[A4G]_A3.1_F3.1_T3.1 (ssRNA)
RNA: ACAAACUGCGUAUAACAAAC
B61: Ib_S3_P3E.1_K3.1_C3.1_H3.1_[T1C]_[G2T]_A3.1_F3.1_T3.1 (ssRNA)
RNA: ACAAACCUUAUAUAACAAAC
B62: Ib_S3_P4E.1_K4.1_C4.1_H4.1_[T3C]_A4.1_F4.1_[A9C]_T4.1 (ssRNA)
RNA: ACAAACUGCAUAUUCACAAAC

Molecular target: T1, PUF4 RNA-binding domain
Test: Mg; RNA-MaP; 20 mM Na-HEPES pH 7.4, 30 mM KOAc, 0.75 mM MgCl2, 0.1% Tween-20, 5% glycerol, 0.1 mg/mL BSA, 2 mM DTT; 25 C; 0.0125-409.6 nM protein
Settings: tags: N-His6-TEV cleaved; C-SNAP kept, Cy3B-labelled; label: tethered on chip by stalled RNA polymerase

Binder	Kd
B1	> 2300 nM
B2	> 2300 nM
B3	116 nM
B4	> 2300 nM
B5	> 2300 nM
B6	> 2300 nM
B7	> 2300 nM
B8	> 2300 nM
B9	> 2300 nM
B10	> 2300 nM
B11	> 2300 nM
B12	> 2300 nM
B13	1980 nM
B14	> 2300 nM
B15	> 2300 nM
B16	704 nM
B17	78.5 nM
B18	> 2300 nM
B19	> 2300 nM
B20	> 2300 nM
B21	> 2300 nM

Binder	Kd
B22	> 2300 nM
B23	> 2300 nM
B24	> 2300 nM
B25	> 2300 nM
B26	> 2300 nM
B27	> 2300 nM
B28	98.9 nM
B29	> 2300 nM
B30	> 2300 nM
B31	> 2300 nM
B32	> 2300 nM
B33	> 2300 nM
B34	28.9 nM
B35	94.3 nM
B36	6.06 nM
B37	267 nM
B38	24.4 nM
B39	6.34 nM
B40	13.1 nM
B41	10.3 nM
B42	11.5 nM

Binder	Kd
B43	6.35 nM
B44	1.95 nM
B45	12.9 nM
B46	9.58 nM
B47	1.36 nM
B48	9.14 nM
B49	1.48 nM
B50	2.13 nM
B51	> 2300 nM
B52	839 nM
B53	> 2300 nM
B54	> 2300 nM
B55	1480 nM
B56	> 2300 nM
B57	> 2300 nM
B58	> 2300 nM
B59	> 2300 nM
B60	> 2300 nM
B61	> 2300 nM
B62	> 2300 nM

Source: article PMC9352680, “A comprehensive thermodynamic model for RNA binding by the Saccharomyces cerevisiae Pumilio protein PUF4”
